# Data reported in patent publication US20140322210A1.
# Where two headings read alike, the source gives them in different places.
# B1: MAB8 (antibody, V domains shown)
# VH: EVQLVESGGGLVKPGGSLRLSCAASGFTFSTYTMSWVRQAPGQGLEWVSSITRTSSNIYYADSVEGRFTISRDNAKNSLYLQMHSLRVEDTAVYYCARISGVVGPVPFDYWGQGTLITVSS
# VL: DIQMTQSPSSLSASVGDRVTITCRASQTISKYLNWYQQKPGRAPKLLIYSASSLQSGVPSRFTGSGSGTDFTLTITSLQPEDFATYYCQQSYRPSQITFGPGTKVDIK
# B2: MAB579 (antibody, V domains shown)
# VH: QVQLVQSGAEVKKPGASVKVSCKTSGYTFTAYTIHWVRQAPGQRLEWMGWINAGNGHTKYSQRFKGRVTITRDTSARTTYMELRSLTSEDTALYFCARGPETYYYDKTNWLNSHPDEYFQHWGHGTQVTVSS
# VL: DIQMTQSPSTLSASVGDRVTITCRASQTINNYLAWYQQKPGKAPKLLIYKASSLESGVPSRFSGSGSGTEFTLTISSLQPDDFATYYCQEYNNDSPLTFGGGTKVEIK
# B3: MAB53 (antibody, V domains shown)
# VH: QVQLVQSGAEVRKPGSSVKVSCKVSGGIIRKYAINWVRQAPGQGLEWMGGIIAIFNTANYAQKFQGRVTITADESTSTVYMELSSLRSEDTALYYCARGMNYYSDYFDYWGQGSLVTVSP
# VL: EIVLTQSPGTLSLSPGERATLSCRASQSVRSNNLAWYQHKPGQAPRLLIFGASSRATGIPDRFSGSGSGTDFTLTISRLEPEDFAVYYCQQYGSSPALTFGGGTKVEIK
# Columns and labels:
# [1] = target: Hemagglutinin of H3N2 A/Wisconsin/67/2005 (influenza A virus); test: cell-based or functional assay
# [2] = target: Hemagglutinin of H7N7 A/Netherlands/219/03 (influenza A virus); test: cell-based or functional assay
# [3] = target: Hemagglutinin of H3N2 A/New York/55/2004 (influenza A virus); test: cell-based or functional assay
# [4] = target: Hemagglutinin of H4N4 A/Bufflehead (influenza A virus); test: cell-based or functional assay
# [5] = target: Hemagglutinin of H3N2 A/Perth/16/2009 (influenza A virus); test: cell-based or functional assay
# [6] = target: Hemagglutinin of H3N2 A/Hong Kong/8/68 (influenza A virus); test: cell-based or functional assay
# [7] = target: Hemagglutinin of H1N1 A/CA/07/09 (influenza A virus); test: cell-based or functional assay
# [8] = target: Hemagglutinin of H5N1 A/VN/1204 (influenza A virus); test: cell-based or functional assay
# [9] = target: Influenza A hemagglutinin of clade H5 (strain not stated) (influenza A virus); test: FortéBio biolayer interferometry
# [10] = target: Influenza A hemagglutinin of clade H3 (strain not stated) (influenza A virus); test: FortéBio biolayer interferometry
# [11] = target: Influenza A hemagglutinin of clade H1 (strain not stated) (influenza A virus); test: FortéBio biolayer interferometry
# [12] = target: Hemagglutinin of H7N7 A/Netherlands/219/03 (influenza A virus); test: FortéBio
# [13] = target: Hemagglutinin of H3N2 A/Perth/16/2009 (influenza A virus); test: FortéBio
# [14] = target: Hemagglutinin of H3N2 A/Hong Kong/8/68 (influenza A virus); test: FortéBio
# [15] = target: Hemagglutinin of H7N3 A/Canada/rv444/04 (influenza A virus); test: affinity, method not named in Table 3
# [16] = target: Hemagglutinin of H7N7 A/Netherlands/219/03 (influenza A virus); test: affinity, method not named in Table 3
# [17] = target: Hemagglutinin of H3N2 A/New York/55/2004 (influenza A virus); test: affinity, method not named in Table 3
# [18] = target: Hemagglutinin of H3N2 A/Perth/16/2009 (influenza A virus); test: affinity, method not named in Table 3
# [19] = target: Hemagglutinin of H3N2 A/Hong Kong/8/68 (influenza A virus); test: affinity, method not named in Table 3
# [20] = target: Hemagglutinin of H7 A/Ruddy Turnstone/A106-892 (influenza A virus); test: cell-based or functional assay
# [21] = target: Hemagglutinin of H3N2 A/Wisconsin/67/2005 (influenza A virus); test: cell-based or functional assay; remark: listed apart in the source
# [22] = target: Hemagglutinin of H7 A/Sanderling/A106-125 (influenza A virus); test: cell-based or functional assay
# [23] = target: Hemagglutinin of H10N7 A/Northern Shoveler (influenza A virus); test: cell-based or functional assay
# [24] = target: Hemagglutinin of H3 A/Udorn/307/1976 (influenza A virus); test: cell-based or functional assay
# [25] = target: Hemagglutinin of H7N3 A/Canada/rv444/04 (influenza A virus); test: cell-based or functional assay
# [26] = target: Hemagglutinin of H7 A/Redknot/NJ/1523470/06 (influenza A virus); test: cell-based or functional assay
# [27] = target: Hemagglutinin of H7N7 A/Netherlands/219/03 (influenza A virus); test: cell-based or functional assay; remark: listed apart in the source
# [28] = target: Hemagglutinin of H3N2 A/New York/55/2004 (influenza A virus); test: cell-based or functional assay; remark: listed apart in the source
# [29] = target: Hemagglutinin of H3 A/SW/MN/02719 (influenza A virus); test: cell-based or functional assay
# [30] = target: Hemagglutinin of H3 A/Phillipines/2/82 x-79 (influenza A virus); test: cell-based or functional assay
# [31] = target: Hemagglutinin of H4N4 A/Bufflehead (influenza A virus); test: cell-based or functional assay; remark: listed apart in the source
# [32] = target: Hemagglutinin of H3N2 A/Perth/16/2009 (influenza A virus); test: cell-based or functional assay; remark: listed apart in the source
# [33] = target: Hemagglutinin of H3N2 A/Hong Kong/8/68 (influenza A virus); test: cell-based or functional assay; remark: listed apart in the source
# [34] = target: Hemagglutinin of H1N1 A/CA/07/09 (influenza A virus); test: FortéBio
# [35] = target: Hemagglutinin of H5 Vietnam/1203/2004 (influenza A virus); test: FortéBio
# [36] = target: Influenza A hemagglutinin of clade H9 (strain not stated) (influenza A virus); test: FortéBio biolayer interferometry
# [37] = target: Influenza A hemagglutinin of clade H7 (strain not stated) (influenza A virus); test: FortéBio biolayer interferometry
# [38] = target: Hemagglutinin of H1N1 A/CA/07/09 (influenza A virus); test: affinity, method not named in Table 3
# [39] = target: Hemagglutinin of H5N1 A/VN/1204 (influenza A virus); test: affinity, method not named in Table 3
# [40] = target: Hemagglutinin of H1N1 A/CA/07/09 (influenza A virus); test: cell-based or functional assay; remark: listed apart in the source
# [41] = target: Hemagglutinin of H5N1 A/VN/1204 (influenza A virus); test: cell-based or functional assay; remark: listed apart in the source
# [42] = target: Hemagglutinin of H9N2 Mallard/MN/98 (influenza A virus); test: cell-based or functional assay
# [43] = target: Hemagglutinin of H2N2 A/Mallard/MN/2008 (influenza A virus); test: cell-based or functional assay
molecule,measurement,setting,value
CR8020 (mAb cloned from Crucell patents) (antibody),EC50 for in vitro neutralization,[1],3.5 µg/mL
same,EC50 for in vitro neutralization,[2],13.1 µg/mL
same,EC50 for in vitro neutralization,[3],10 µg/mL
same,EC50 for in vitro neutralization,[4],> 40 µg/mL
same,EC50 for in vitro neutralization,[5],2 µg/mL
same,EC50 for in vitro neutralization,[6],7.6 µg/mL
CR6261 (mAb cloned from Crucell patents) (antibody),EC50 for in vitro neutralization,[7],4 µg/mL
same,EC50 for in vitro neutralization,[8],3.7 µg/mL
B1,Kd,[9],0.2 nM
same,Kd,[10],16 nM
same,Kd,[11],9 nM
B2,Kd,[12],0.4 nM
same,Kd,[13],0.7 nM
same,Kd,[14],0.2 nM
same,Kd,[15],0.6 nM
same,Kd,[16],0.4 nM
same,Kd,[17],0.2 nM
same,Kd,[18],0.8 nM
same,Kd,[19],0.2 nM
same,"IC50, MDCK monolayer microneutralization assay",[20],> 20 µg/mL
same,EC50 for in vitro neutralization,[21],1 µg/mL
same,"IC50, MDCK monolayer microneutralization assay",[21],1 µg/mL
same,Potency Difference (MAB579 against CR8020),[21],3 x
same,"IC50, MDCK monolayer microneutralization assay",[22],> 20 µg/mL
same,EC50 for in vitro neutralization,[23],0.8 µg/mL
same,"IC50, MDCK monolayer microneutralization assay",[23],0.8 µg/mL
same,"IC50, MDCK monolayer microneutralization assay",[24],1.9 µg/mL
same,EC50 for in vitro neutralization,[25],0.5 µg/mL
same,"IC50, MDCK monolayer microneutralization assay",[25],1.6 µg/mL
same,"IC50, MDCK monolayer microneutralization assay",[26],> 20 µg/mL
same,EC50 for in vitro neutralization,[27],0.7 µg/mL
same,"IC50, MDCK monolayer microneutralization assay",[27],0.6 µg/mL
same,Potency Difference (MAB579 against CR8020),[27],20 x
same,EC50 for in vitro neutralization,[28],2 µg/mL
same,"IC50, MDCK monolayer microneutralization assay",[28],1.1 µg/mL
same,Potency Difference (MAB579 against CR8020),[28],5 x
same,"IC50, MDCK monolayer microneutralization assay",[29],3.9 µg/mL
same,"IC50, MDCK monolayer microneutralization assay",[30],0.9 µg/mL
same,EC50 for in vitro neutralization,[31],15 µg/mL
same,"IC50, MDCK monolayer microneutralization assay",[31],15.5 µg/mL
same,Potency Difference (MAB579 against CR8020),[31],3 x
same,EC50 for in vitro neutralization,[32],0.05 µg/mL
same,"IC50, MDCK monolayer microneutralization assay",[32],0.2 µg/mL
same,Potency Difference (MAB579 against CR8020),[32],40 x
same,EC50 for in vitro neutralization,[33],2 µg/mL
same,"IC50, MDCK monolayer microneutralization assay",[33],2.8 µg/mL
same,Potency Difference (MAB579 against CR8020),[33],3 x
B3,Kd,[34],0.2 nM
same,Kd,[35],0.5 nM
same,Kd,[36],0.03 nM
same,Kd,[9],6 nM
same,Kd,[11],0.06 nM
same,Kd,[37],0.07 nM
same,Kd,[38],0.1 nM
same,Kd,[39],0.5 nM
same,EC50 for in vitro neutralization,[40],0.14 µg/mL
same,Potency Difference (MAB53 against CR6261),[40],30 x
same,EC50 for in vitro neutralization,[41],0.1 µg/mL
same,Potency Difference (MAB53 against CR6261),[41],40 x
same,EC50 for in vitro neutralization,[42],0.1 µg/mL
same,EC50 for in vitro neutralization,[43],1.2 µg/mL
